The source of these data is paper PMC2168396 (The EMBO Journal, 2007).

The series “SEC + other: NMR” concerns the molecule itself. The series can be described thus: SEC + other: NMR.
The target of series [1] is filamentous actin (F-actin) from rabbit skeletal muscle (rabbit, UniProt P68135 1-377). The series can be described thus: co-sedimentation.

B1: talin 2300–2541 (C-terminal actin-binding domain, wild type) (domain or fragment, mouse, UniProt P26039 2300-2541, looked up)
chain: DPTVIAENELLGAAAAIEAAAKKLEQLKPRAKPKEADESLNFEEQILEAAKSIAAATSALVKAASAAQRELVAQGKVGAIPANALDDGQWSQGLISAARMVAAATNNLCEAANAAVQGHASQEKLISSAKQVAASTAQLLVACKVKADQDSEAMKRLQAAGNAVKRASDNLVKAAQKAAAFEDQENETVVVKEKMVGGIAQIIAAQEEMLRKERELEEARKKLAQIRQQQYKFLPSELRDEH
For the molecule B1, the “stoichiometry N” value in “SEC + other: NMR” is 2. Moreover, in series [1], the “co-sedimentation pellet (% of WT)” value is 100 ± 3 % of WT.

B2: talin 2300–2541 L2309A/L2323A (domain or fragment, mouse, UniProt P26039 2300-2541, looked up)
chain: DPTVIAENEALGAAAAIEAAAKKAEQLKPRAKPKEADESLNFEEQILEAAKSIAAATSALVKAASAAQRELVAQGKVGAIPANALDDGQWSQGLISAARMVAAATNNLCEAANAAVQGHASQEKLISSAKQVAASTAQLLVACKVKADQDSEAMKRLQAAGNAVKRASDNLVKAAQKAAAFEDQENETVVVKEKMVGGIAQIIAAQEEMLRKERELEEARKKLAQIRQQQYKFLPSELRDEH
Regarding B2, in “SEC + other: NMR”, the “stoichiometry N” value was 2. Further, the “co-sedimentation pellet (% of WT)” value in series [1] is 154 ± 7 % of WT.

B3: talin 2300–2541 I2316A/L2323A (domain or fragment, mouse, UniProt P26039 2300-2541, looked up)
chain: DPTVIAENELLGAAAAAEAAAKKAEQLKPRAKPKEADESLNFEEQILEAAKSIAAATSALVKAASAAQRELVAQGKVGAIPANALDDGQWSQGLISAARMVAAATNNLCEAANAAVQGHASQEKLISSAKQVAASTAQLLVACKVKADQDSEAMKRLQAAGNAVKRASDNLVKAAQKAAAFEDQENETVVVKEKMVGGIAQIIAAQEEMLRKERELEEARKKLAQIRQQQYKFLPSELRDEH
Turning to B3, the “stoichiometry N” value in “SEC + other: NMR” came to 2. In addition, the “co-sedimentation pellet (% of WT)” value in series [1] is 135 ± 13 % of WT.

B4: talin 2300–2541 K2445D (domain or fragment, mouse, UniProt P26039 2300-2541, looked up)
chain: DPTVIAENELLGAAAAIEAAAKKLEQLKPRAKPKEADESLNFEEQILEAAKSIAAATSALVKAASAAQRELVAQGKVGAIPANALDDGQWSQGLISAARMVAAATNNLCEAANAAVQGHASQEKLISSAKQVAASTAQLLVACKVDADQDSEAMKRLQAAGNAVKRASDNLVKAAQKAAAFEDQENETVVVKEKMVGGIAQIIAAQEEMLRKERELEEARKKLAQIRQQQYKFLPSELRDEH
As to B4, the “stoichiometry N” value in “SEC + other: NMR” was 2. In addition, the “co-sedimentation pellet (% of WT)” value in series [1] was 48 ± 10 % of WT.

B5: talin 2300–2541 L2323A (domain or fragment, mouse, UniProt P26039 2300-2541, looked up)
chain: DPTVIAENELLGAAAAIEAAAKKAEQLKPRAKPKEADESLNFEEQILEAAKSIAAATSALVKAASAAQRELVAQGKVGAIPANALDDGQWSQGLISAARMVAAATNNLCEAANAAVQGHASQEKLISSAKQVAASTAQLLVACKVKADQDSEAMKRLQAAGNAVKRASDNLVKAAQKAAAFEDQENETVVVKEKMVGGIAQIIAAQEEMLRKERELEEARKKLAQIRQQQYKFLPSELRDEH
With B5, the “stoichiometry N” value in the series “SEC + other: NMR” was 2. Further, the “co-sedimentation pellet (% of WT)” value in series [1] was 127 ± 3 % of WT.

B6: talin 2300–2541 K2443D (domain or fragment, mouse, UniProt P26039 2300-2541, looked up)
chain: DPTVIAENELLGAAAAIEAAAKKLEQLKPRAKPKEADESLNFEEQILEAAKSIAAATSALVKAASAAQRELVAQGKVGAIPANALDDGQWSQGLISAARMVAAATNNLCEAANAAVQGHASQEKLISSAKQVAASTAQLLVACDVKADQDSEAMKRLQAAGNAVKRASDNLVKAAQKAAAFEDQENETVVVKEKMVGGIAQIIAAQEEMLRKERELEEARKKLAQIRQQQYKFLPSELRDEH
For B6, the “stoichiometry N” value in the series “SEC + other: NMR” was determined as 2. In addition, the “co-sedimentation pellet (% of WT)” value in series [1] is 43 ± 5 % of WT.

B7: talin 2300–2541 L2309A (domain or fragment, mouse, UniProt P26039 2300-2541, looked up)
chain: DPTVIAENEALGAAAAIEAAAKKLEQLKPRAKPKEADESLNFEEQILEAAKSIAAATSALVKAASAAQRELVAQGKVGAIPANALDDGQWSQGLISAARMVAAATNNLCEAANAAVQGHASQEKLISSAKQVAASTAQLLVACKVKADQDSEAMKRLQAAGNAVKRASDNLVKAAQKAAAFEDQENETVVVKEKMVGGIAQIIAAQEEMLRKERELEEARKKLAQIRQQQYKFLPSELRDEH
B7: the “stoichiometry N” value in “SEC + other: NMR” was 2. The “co-sedimentation pellet (% of WT)” value in series [1] is 113 ± 3 % of WT.

B8: talin 2300–2541 K2443D/V2444D/K2445D (domain or fragment, mouse, UniProt P26039 2300-2541, looked up)
chain: DPTVIAENELLGAAAAIEAAAKKLEQLKPRAKPKEADESLNFEEQILEAAKSIAAATSALVKAASAAQRELVAQGKVGAIPANALDDGQWSQGLISAARMVAAATNNLCEAANAAVQGHASQEKLISSAKQVAASTAQLLVACDDDADQDSEAMKRLQAAGNAVKRASDNLVKAAQKAAAFEDQENETVVVKEKMVGGIAQIIAAQEEMLRKERELEEARKKLAQIRQQQYKFLPSELRDEH
For the molecule B8, the “stoichiometry N” value in the series “SEC + other: NMR” came out at 2. In series [1], the “co-sedimentation pellet (% of WT)” value is 27 ± 6 % of WT.

B9: talin 2300–2541 R2519A (domain or fragment)
chain: DPTVIAENELLGAAAAIEAAAKKLEQLKPRAKPKEADESLNFEEQILEAAKSIAAATSALVKAASAAQRELVAQGKVGAIPANALDDGQWSQGLISAARMVAAATNNLCEAANAAVQGHASQEKLISSAKQVAASTAQLLVACKVKADQDSEAMKRLQAAGNAVKRASDNLVKAAQKAAAFEDQENETVVVKEKMVGGIAQIIAAQEEMLRKERELEEAAKKLAQIRQQQYKFLPSELRDEH
As for B9, the “co-sedimentation pellet (% of WT)” value in series [1] is 37 ± 3 % of WT.

B10: talin 2300–2541 D2447N (domain or fragment, mouse, UniProt P26039 2300-2541, looked up)
chain: DPTVIAENELLGAAAAIEAAAKKLEQLKPRAKPKEADESLNFEEQILEAAKSIAAATSALVKAASAAQRELVAQGKVGAIPANALDDGQWSQGLISAARMVAAATNNLCEAANAAVQGHASQEKLISSAKQVAASTAQLLVACKVKANQDSEAMKRLQAAGNAVKRASDNLVKAAQKAAAFEDQENETVVVKEKMVGGIAQIIAAQEEMLRKERELEEARKKLAQIRQQQYKFLPSELRDEH
As for B10, the “stoichiometry N” value in the series “SEC + other: NMR” worked out at 2. Also, the “co-sedimentation pellet (% of WT)” value in series [1] is 144 ± 8 % of WT.

B11: talin 2300–2541 D2385K/D2386N (domain or fragment, mouse, UniProt P26039 2300-2541, looked up)
chain: DPTVIAENELLGAAAAIEAAAKKLEQLKPRAKPKEADESLNFEEQILEAAKSIAAATSALVKAASAAQRELVAQGKVGAIPANALKNGQWSQGLISAARMVAAATNNLCEAANAAVQGHASQEKLISSAKQVAASTAQLLVACKVKADQDSEAMKRLQAAGNAVKRASDNLVKAAQKAAAFEDQENETVVVKEKMVGGIAQIIAAQEEMLRKERELEEARKKLAQIRQQQYKFLPSELRDEH
As to B11, the “stoichiometry N” value in the series “SEC + other: NMR” was determined as 2. The “co-sedimentation pellet (% of WT)” value in series [1] was 113 ± 13 % of WT.

B12: talin 2300–2541 I2316A (domain or fragment, mouse, UniProt P26039 2300-2541, looked up)
chain: DPTVIAENELLGAAAAAEAAAKKLEQLKPRAKPKEADESLNFEEQILEAAKSIAAATSALVKAASAAQRELVAQGKVGAIPANALDDGQWSQGLISAARMVAAATNNLCEAANAAVQGHASQEKLISSAKQVAASTAQLLVACKVKADQDSEAMKRLQAAGNAVKRASDNLVKAAQKAAAFEDQENETVVVKEKMVGGIAQIIAAQEEMLRKERELEEARKKLAQIRQQQYKFLPSELRDEH
On to B12, for which, in the series “SEC + other: NMR”, the “stoichiometry N” value is 2. Besides, the “co-sedimentation pellet (% of WT)” value in series [1] was 96 ± 9 % of WT.

B13: talin 2300–2541 D2385K/D2386N/D2447N (domain or fragment, mouse, UniProt P26039 2300-2541, looked up)
chain: DPTVIAENELLGAAAAIEAAAKKLEQLKPRAKPKEADESLNFEEQILEAAKSIAAATSALVKAASAAQRELVAQGKVGAIPANALKNGQWSQGLISAARMVAAATNNLCEAANAAVQGHASQEKLISSAKQVAASTAQLLVACKVKANQDSEAMKRLQAAGNAVKRASDNLVKAAQKAAAFEDQENETVVVKEKMVGGIAQIIAAQEEMLRKERELEEARKKLAQIRQQQYKFLPSELRDEH
Regarding B13, the “stoichiometry N” value in the series “SEC + other: NMR” was 2. Moreover, the “co-sedimentation pellet (% of WT)” value in series [1] is 138 ± 16 % of WT.

B14: talin 2300–2541 R2526A (domain or fragment)
chain: DPTVIAENELLGAAAAIEAAAKKLEQLKPRAKPKEADESLNFEEQILEAAKSIAAATSALVKAASAAQRELVAQGKVGAIPANALDDGQWSQGLISAARMVAAATNNLCEAANAAVQGHASQEKLISSAKQVAASTAQLLVACKVKADQDSEAMKRLQAAGNAVKRASDNLVKAAQKAAAFEDQENETVVVKEKMVGGIAQIIAAQEEMLRKERELEEARKKLAQIAQQQYKFLPSELRDEH
As for B14, the “co-sedimentation pellet (% of WT)” value in series [1] was 37 ± 9 % of WT.

B15: talin 2300–2541 L2515D/A2518D (domain or fragment)
chain: DPTVIAENELLGAAAAIEAAAKKLEQLKPRAKPKEADESLNFEEQILEAAKSIAAATSALVKAASAAQRELVAQGKVGAIPANALDDGQWSQGLISAARMVAAATNNLCEAANAAVQGHASQEKLISSAKQVAASTAQLLVACKVKADQDSEAMKRLQAAGNAVKRASDNLVKAAQKAAAFEDQENETVVVKEKMVGGIAQIIAAQEEMLRKEREDEEDRKKLAQIRQQQYKFLPSELRDEH
For B15, the “co-sedimentation pellet (% of WT)” value in series [1] was 42 ± 7 % of WT.

B16: talin 2300–2541 A2518D (domain or fragment)
chain: DPTVIAENELLGAAAAIEAAAKKLEQLKPRAKPKEADESLNFEEQILEAAKSIAAATSALVKAASAAQRELVAQGKVGAIPANALDDGQWSQGLISAARMVAAATNNLCEAANAAVQGHASQEKLISSAKQVAASTAQLLVACKVKADQDSEAMKRLQAAGNAVKRASDNLVKAAQKAAAFEDQENETVVVKEKMVGGIAQIIAAQEEMLRKERELEEDRKKLAQIRQQQYKFLPSELRDEH
As for B16, in series [1], the “co-sedimentation pellet (% of WT)” value is 43 ± 10 % of WT.

B17: talin 2300–2541 R2526G (domain or fragment)
chain: DPTVIAENELLGAAAAIEAAAKKLEQLKPRAKPKEADESLNFEEQILEAAKSIAAATSALVKAASAAQRELVAQGKVGAIPANALDDGQWSQGLISAARMVAAATNNLCEAANAAVQGHASQEKLISSAKQVAASTAQLLVACKVKADQDSEAMKRLQAAGNAVKRASDNLVKAAQKAAAFEDQENETVVVKEKMVGGIAQIIAAQEEMLRKERELEEARKKLAQIGQQQYKFLPSELRDEH
As to B17, in series [1], the “co-sedimentation pellet (% of WT)” value was 33 ± 5 % of WT.

B18: talin 2300–2541 L2515D (domain or fragment)
chain: DPTVIAENELLGAAAAIEAAAKKLEQLKPRAKPKEADESLNFEEQILEAAKSIAAATSALVKAASAAQRELVAQGKVGAIPANALDDGQWSQGLISAARMVAAATNNLCEAANAAVQGHASQEKLISSAKQVAASTAQLLVACKVKADQDSEAMKRLQAAGNAVKRASDNLVKAAQKAAAFEDQENETVVVKEKMVGGIAQIIAAQEEMLRKEREDEEARKKLAQIRQQQYKFLPSELRDEH
Consider B18, for which the “co-sedimentation pellet (% of WT)” value in series [1] was 36 ± 6 % of WT.

For orientation: stoichiometry N means the number of molecules, sites or subunits per partner or assembly.
